Assay: label from the status in PepcDB records

| Sequence | protein production |
| --- | --- |
| MVTKEQVVEALEGIVDPFLHKTLKETSAIKEVTVKPEKEHVSVKIAIVKTGTAEQMQLQSGIVKLVKELGAATVGLRFAEFTEEELAQFAPEQEEEQSESLLSPNSKTTFLAVASGKGGVGKSTVSVNLAVALARLGKKVGIIDADIYGFSVPDMMGIEKRPIVRGDKIIPVERLGVKVISMGFFVEDNAPVIWRGPMLGKMLNHFFTEVEWGDLDYLVLDLPPGTGDVALDVHSMLPSCKEIIVTTPHPTAAFVAARAGAMALRTEHSILGVVENMAYFESKVTGEKEYVFGKGGGDKLATELQTNVLGRIPLQQPDWNKEDFAPSVYEDTHTTGIIYSKIAETVIDKTAVTQKLEHHHHHH | not failed |
| MKHLTVYFLLALQGVLFSFSLSAATPQNAIAYHDGNVRFSVLTDGVIRMEWSPSGSFTDDPSFVAIHRNLPVPKYTVQNKNATVVISTARMKLKYKKGQGPFTKDNLTITSAKGMFPFQWTPGTIQKGNLKGTDRTLDGFEGDHNIYSHQDMKLEDGLLSTDGWTLIDDSKNFLFDNSEWAWVKEREHKDGQDWYFMAYGHDYKAALKDFTVFAGKVPLPPRYAFGYWWSRYWSYSDKEMRQLVDNFHTYNIPLDVLVVDMDWHYTDPGFGGWTGWTWNRRLFPDPAKFLGYLKSNDLKITLNLHPADGVAPYEEKYPEMAQWMGVDTAKQERIPWVVSDKRFINGMFNKVLRPMEKQGVDFWWLDWQQWMYDKKVDSLSNTWWINYVFFSDMERNRDTRPMLYHRWGGLGNHRYQIGFSGDAVISWKSLEFQPYFTNCASNVLYGYWSHDIGGHMFKGGDKEILDPELFTRWMQYGALTPVMRTHSTKNSVLNKELWNFKGDYFEALRNSILFRYQLAPYIYTMARETYDNGISICRPMYYDYPEAKEAYDFKSEYMFGDQILVAPITTPMQNGLSTVKVWLPEGNDWFEWTTGTLLKGGQIIERSFTLTEYPVYVKAGSVLPLYNRVKNLNSNSEEIIVNIFPGENGSFTFYEDNGNDKYYANEYARTRMYTERKENHLTVTVGPRQGKYRNMPTDRQFKIKVLGSAIPETITINGNRAEYEYIGDELALLITIPQTACDQEKTIEIQYSTSIPELNDGIVSQFKRFSKAITALKYRDAGIVLTPTMGATEATSIALTYSPERFNELIETFKRNYSQMPEMLKEQKLNEANSQWFMKAIGWKK | failed |
| MSLKLTPEAAGTFAIAPTPFHDDGKIDDVSIDRLTDFYAEVGCEGVTVLGILGEAPKLDAAEAEAVATRFIKRAKSMQVIVGVSAPGFAAMRRLARLSMDAGAAGVMIAPPPSLRTDEQITTYFRQATEAIGDDVPWVLQDYPLTLSVVMTPKVIRQIVMDSASCVMLKHEDWPGLEKITTLRGFQKDGSLRPLSILCGNGGLFLDFEMERGADGAMTGYCFPDMLVDVVKLSKAGQRDLAHNLFDAHLPLIRYEHQQGVGLSVRKYVLKKRGLLSSSAQRKPGASLTDTAREEVDYLLSRLARVEGHHHHHH | not failed |
| MKIIDKLYEKVSKNGFVCIGLDSSIDYIPENMKAGKSVSEALFSYNKEIIDQTYDVCAIYKLQIAYYESYGIEGMIAYRDTLSYLREKDLLSIGDVKRSDIAASAKMYAKAHFEGDFETDFITLNPYMGMDSIEPYEEYIEKGDKGVFVLLRTSNPGAKDFEVLPVDGEEFFYKVGDKMRELNEKYIGKSGFGPIGLVVGATHSEEVEKIRKRYDKMFFLIPGFGAQKADSMNVYKLLEGLNGGVVNSSRAILKNWQNYEDGSEKVGYYARKKAIETYEEIKANEVL | not failed |
| ESYWRSRMIDAVTSDEDKVAPVYKLEEICDLLRSSHVSIVKEFSEFILKRLDNKSPIVKQKALRLIKYAVGKSGSEFRREMQRNSVAVRNLFHYKGHPDPLKGDALNKAVRETAHETISAIFSEENG | not failed |
| MSDNALTSSRRFGGIARLYGDSALAHFSQAHVCVVGVGGVGSWAVEALARTGIGRLTLIDLDNVAESNVNRQLHALTGDFGKAKVTALRERITQINPQCEVFEIEDFVTEDNLPEYFGKGFDFVIDAIDQVRVKAAMAAYFVERKQPFVLSGGAGGQKNPALIQTADLSRVTHDPLLANLRYTLRKRYGFSRDTKANMRVPCVYSTENIVPPQSREACSADAAPQGLSCAGYGASMLVTASFGLYCAQAAVEHIADKKLEHHHHHH | not failed |
| MLVEDSGHHLPESADIENALDLLLKAQLERAFGPELAEHFWAARQPRTLDERLAFIRKCWIGVFKDSPLSTFGLERLEQLERLCRSKRRGRELSAAEHHQFAEELARLWEQVQRLLPRAAPETSYASSASAGGVHSGDAHTPATLSDAESAHAAPEAMRIEAPATSARSASGCMARVSSDVAAAATNVSLVVLDGENIAWAHGQNAVFSPKGIAIAVDFFRKRGYRCVVFLPDYRRKRADLPTVSASDALVFVPAGEYDDTFALGYAVGHDAILVTNDLLQDHLDQFYPDEGEAREALRKWLGSHRCSFTFVGDEFLPNPHFFLP | failed |
| MNTLYTLFATCPRGLETVLSQELGSLGCTDVQAFDGGVSCRGGLEQAYAANLHSRTAGRILLRLTKGTYRTERDIYKLAKNINWFNWFTLQQTFKVKIEAKRANVKSLQFAGLTVKDAVCDAFRDIYDARPSVDKAAPDVRIHAFLDERNVEIFIDTSGEALFKRGYRLDTGEAPLRENLAAGLLLSAGYDGTQPFQDPFCGSGTIAIEAAWIAAGRAPGMMRRFGFEKLQNFDKTLWADLRRRAEAQTRPVRAPIAGSDNGRRIVQTALDNAHNAGADDIVSFSVAGAQSVRPNGENGIMVSNPPYGVRLEEVRALQALYPQLGTWLKKHYAGWRVGMFTGDREMPKFMRLLPKRKIPLYNGNIDCRLFLIDMVQGSNR | not failed |
| MAASLRSFLEQLKRQNSLYLVKKPVNPRFELGALLKKTKGTVPMFFQNIEGYDVPAVGGIVGTRENFAQALRINKSELLAKITEAITNPGETRLLPSGPVQENVLTKGFDIGKMFPIPTFHEKDSGAFITAGIVVAKDPIYGRRFTSIRRMQLNGPNNLSILIESPGLIEQYYEFERRGQAMEVAIVLGVHPAITLSSQLPTQTFGLDKYNVASRLIGEPLPVVKCKTIDLEVPADAEIVLEGRMLPYVRHPEGPFGELMGYYGPQTMQPVVEVTAVTFRNNPIFQVIFPSSYEHKLPNALMREVVLFNHVRHVVPTVQDVHLTMAGGGRCHAIISIKKTAEGQGKQAIFAALASNKDVKHVVVVNDDVDIFDPEDVEWAIATRVQADQDIIIIPGAQGTPLEPSHNLRGVSAKMGIDATYPLAEEERFARTQIPGYDQIRLEDYLTLDW | not failed |
| MGHHHHHHSHMATGEEVPRTIIVTTRSQYGLPEDAIVYCNFNQLYKIDPSTLQMWANILKRVPNSVLWLLRFPAVGEPNIQQYAQNMGLPQNRIIFSPVAPKEEHVRRGQLADVCLDTPLCNG | failed |
| MAHHTKETMELIKELVSIPSPSGNTAKIINFIENYVSEWNVETKRNNKGALILTVKGKNDAQHRLLTAHVDTLGAMVKEIKPDGRLSLSMIGGFRWNSVEGEYCEIETSSGKTYTGTILMHQTSVHVYKDAGEAKRDEKNIEVRIDERVFSADEVRELGIEVGDFVSFDPRVQITESGYIKSRHLDDKVSVAILLKLIKRLQDENVTLPYTTHFLISNNEEIGYGGNSNIPEETVEYLAVDMGALGDGQASDEYTVSICAKDSSGPYHYALRKHLVELAKTNHIEYKVDIYPYYGSDASAAIRAGFDVKHALIGAGIDSSHAFERTHESSIAHTEALVYAYVMSNLIEE | not failed |
| MTQHQTLPQTTEGAYHYQVIRRAIELIDQTDQPISLDEIAANMGMSPAHFQRVFSRWVGVLEHHHHHH | not failed |
| PNRRADDNATIRVTNLSEDTRETDLQELFRPFGSISRIYLAKDKTTGQSKGFAFISFHRREDAARAIAGVSGFGYDHLILNVEWAKPSTN | not failed |
| MCRNNREDIFNLVPINIISSKFHVKVIGGGKAATIKVKGLLEKGCYVHILSKEFSKEILDIENKNLKLEKGNYYKEFIKDAHLIIIAVNESSLVYKISKDCEKEYKLYLNAANYKEGMVAIPYSRCYENLGFSISSKLGSPRITRAIGEEVSNIIKENDIYSIKVAKIREKAKKEELKDNIIEIISSKEFKNAILEKREYEYLKNLLGEELANSLTLGLK | failed |
| MTWLLFGAGNGVGGCLLQRAIECEQAVVLVLRNPEQAKHWREQGVTVVEGDACDPETVAEACRVAGPSAIVVSTMGGGTVNYQGHRTVIDGAEQAGIKRMLLVTSLGCGDSWPLLSPRARAAFGFAVREKSLAESWLQSSTLDHCIVRPGGLLDVVATHNAKLTQGAATLGLVSRSDVALAVDQLLQQPVFGNHIYNLIDPDLTMPAIPLEHHHHHH | failed |
| MATYSLANERLRALEDIEREIGAILQNAGTAILELSKEKTNERLLDRQAAAFTTSVQHVEAELSAQIRYLTQVATGQPHEGSSYSSRKDCQMALKRVDYARLKISDVARTCEQMLEN | failed |
| MIELRNELPGGEVHAAWHLRYAGHDFFVKCDEREMLRGFTAEADQLELLSRSKTVVVPKVWAVGSDRDYSFLVMDYLSPRPLDAHNAFILGQQLARLHQWSDQPQFGLDFDNALSTTPQPNTWQRRWSTFFAEQRIGWQLELAAEKGITFGNIDAIVEHVQQRLASHQPQPSLLHGDLWSANCALGPDGPYIFDPACYWGDRECDLAMLPLHTDQPPQIYDGYQSVSPLPLDFLDRQPIYQLYTLLNRARLFGGQHLATAQKAMDRLLAVLEHHHHHH | failed |
| MEGQTHDAQNNVPEHDNPLMNVKNPSSNLFSKKDAQCLSVLCNGKWLQIVRSSPKVSCEASTCPSHILTKVGENYVAESEKMHKKVISFSSKTFSQGTLQFTMRANGTPHFVFKLENQKDVYVASLSSNVQDQNSYMIHLQRGESSASSSHLVGRINVSTLFSEKVLEREFVLFSSNGENLKIPRTRKNRGLSKKVVHAVKNERRTARLSRTSFIPDLGSWDEQFQAQNYDCLLKNKLPTNLETLAVVVKQETIEDEIGGWGLKFLKRSPMFQRSNDASETETSTSSISMNVVIPSGIHGGPEDGPSSLIERWKSQGNCDCGGWDLCCSLTLLKGQPRKDQYFELFIEVKLSFISSNTSIL | failed |
| MRPESMTDGVPGSDSPAAAAAAASVTTSLHDLQVLVERGTLSGPEKQQADHLVTSLKRELVLRRVGDHLAERTFHELCVRLAVMERDWAAMERHIQQLMPLYELDRQAGIQSPHRDLLVGLNLMRLLAQNRLAEYHMELELLPTTEPQQNPYVLFPFQVEQALTEGSYQKILHIEAGAEWLPFIELLRETTIQEMVTSWAEAYAHVTLEELASMAALPVEQVPALLARVLDCTQYVVQNETVHFIASDHIREAPSQYLLAKEAVSRTMEYIRGLERIV | not failed |
| MNLNDYKGILVFAEQRDGILQNVGLELLGKATELAYEINKQIALKDAGDELADFAGKKEAAIKSVDVAAATLEEDDQELKNKVADIKKNNPDAAKVTALLVGHNIKNLAQDLIKAGADKVLVVDKPELEVYDTEAYAQVLTATINDQKPEIVLFGATTLGRDLAPRVSSRIATGLTADCTKLELLKDKERQLGMTRPAFGGNLMATIVSPDHRPQMATVRPGVMKKLPKSDDRTGEVVEFPVTLDTSKMKVKLLKVVKEGGNKVDISEAKILVSGGRGVGSKQNFELLEDLATEIGGIVSSSRAQVDAGNMPHDRQVGQTGKTVRPEVYFACGISGAIQHVAGMEESEFIIAINKDRFAPIFSVADLGIVGDLHKILPILTEEIKKYKATK | failed |
| MDKIGMTNQITGVISKFDTNIRTIVLNAKDGIFTCNLMIFVKNTDKLTTLMDKLRKVQGLEHHHHHH | failed |

Reference: a protein production outcome set (Wang et al. 2014)
